The values that follow come from article doi:10.1101/343046 (bioRxiv, 2018).

The target of this experiment is T1, GST-KBP (Kinesin-Binding Protein) (human, UniProt Q96EK5 1-621).
T1 sequence (looked up): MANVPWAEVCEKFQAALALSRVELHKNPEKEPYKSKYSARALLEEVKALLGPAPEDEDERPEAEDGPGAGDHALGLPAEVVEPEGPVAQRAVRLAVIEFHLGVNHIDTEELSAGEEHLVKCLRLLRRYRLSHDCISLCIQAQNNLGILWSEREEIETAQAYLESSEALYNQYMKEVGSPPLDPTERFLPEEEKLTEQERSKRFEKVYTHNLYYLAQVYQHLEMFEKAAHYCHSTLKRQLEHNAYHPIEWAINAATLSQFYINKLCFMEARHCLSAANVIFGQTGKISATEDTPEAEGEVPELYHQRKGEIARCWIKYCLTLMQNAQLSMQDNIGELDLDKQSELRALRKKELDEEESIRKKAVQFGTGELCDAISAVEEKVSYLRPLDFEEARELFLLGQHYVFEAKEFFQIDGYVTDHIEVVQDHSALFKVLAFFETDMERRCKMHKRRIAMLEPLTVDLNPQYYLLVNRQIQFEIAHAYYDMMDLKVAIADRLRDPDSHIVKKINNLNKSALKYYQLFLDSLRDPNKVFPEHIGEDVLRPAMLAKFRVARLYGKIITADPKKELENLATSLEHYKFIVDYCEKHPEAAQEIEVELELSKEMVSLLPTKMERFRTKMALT
Description: pull-down.

B1: KIF18A-N480-GFP-His6 (domain or fragment, human, UniProt Q8NI77 1-480, looked up)
chain: MSVTEEDLCHHMKVVVRVRPENTKEKAAGFHKVVHVVDKHILVFDPKQEEVSFFHGKKTTNQNVIKKQNKDLKFVFDAVFDETSTQSEVFEHTTKPILRSFLNGYNCTVLAYGATGAGKTHTMLGSADEPGVMYLTMLHLYKCMDEIKEEKICSTAVSYLEVYNEQIRDLLVNSGPLAVREDTQKGVVVHGLTLHQPKSSEEILHLLDNGNKNRTQHPTDMNATSSRSHAVFQIYLRQQDKTASINQNVRIAKMSLIDLAGSERASTSGAKGTRFVEGTNINRSLLALGNVINALADSKRKNQHIPYRNSKLTRLLKDSLGGNCQTIMIAAVSPSSVFYDDTYNTLKYANRAKDIKSSLKSNVLNVNNHITQYVKICNEQKAEILLLKEKLKAYEEQKAFTNENDQAKLMISNPQEKEIERFQEILNCLFQNREEIRQEYLKLEMLLKENELKSFYQQQCHKQIEMMCSEDKVEKATGKR
Consider B1, for which the binding result is given as “binds”.

B2: His6-KIF15-N420 (domain or fragment, human, UniProt Q9NS87 1-420, looked up)
chain: MAPGCKTELRSVTNGQSNQPSNEGDAIKVFVRIRPPAERSGSADGEQNLCLSVLSSTSLRLHSNPEPKTFTFDHVADVDTTQESVFATVAKSIVESCMSGYNGTIFAYGQTGSGKTFTMMGPSESDNFSHNLRGVIPRSFEYLFSLIDREKEKAGAGKSFLCKCSFIEIYNEQIYDLLDSASAGLYLREHIKKGVFVVGAVEQVVTSAAEAYQVLSGGWRNRRVASTSMNRESSRSHAVFTITIESMEKSNEIVNIRTSLLNLVDLAGSERQKDTHAEGMRLKEAGNINRSLSCLGQVITALVDVGNGKQRHVCYRDSKLTFLLRDSLGGNAKTAIIANVHPGSRCFGETLSTLNFAQRAKLIKNKAVVNEDTQGNVSQLQAEVKRLKEQLAELASGQTPPESFLTRDKKKTNYMEYFQE
Take B2: the binding result is “binds”.
